Data published in publication doi:10.1101/2025.11.03.686418.
Where two headings read alike, the source gives them in different places.

How the values were obtained:
Test in all cases: SEC-MALS
[1] = target: His6-QatC (co-expressed with QatB) (Escherichia coli NCTC9009)
[2] = target: His6-QatC (co-expressed with QatB) (Escherichia coli NCTC9009); remark: listed apart in the source
[3] = target: QatB (untagged, co-expressed with His6-QatC) (Escherichia coli NCTC9009)

| Substance | stoichiometry N [1] | stoichiometry N [2] | stoichiometry N [3] |
| --- | --- | --- | --- |
| QatB (untagged, co-expressed with His6-QatC) (natural protein) | 1 | 1 |  |
| QatD (untagged, co-expressed) (enzyme) |  |  | 1 |
